# Results published in publication PMC1278935, “Different Catalytic Mechanisms in Mammalian Selenocysteine- and Cysteine-Containing Methionine-R-Sulfoxide Reductases” (PLoS Biology, 2005).
# B1: MsrB1 (Sec-containing MsrB1; Cys form MsrB1-Cys) (Mus musculus) (protein)
# chain: MSFCSFFGGEVFQNHFEPGVYVCAKCSYELFSSHSKYAHSSPWPAFTETIHPDSVTKCPEKNRPEALKVSCGKCGNGLGHEFLNDGPKRGQSRFUIFSSSLKFVPKGKEAAASQGH
# notes: full length, monomer; Sec forms: natural SECIS element, C-terminal His tag (five His added to own C-terminal His), from NIH 3T3 cells; C-terminally tagged form of similar activity also made
# B2: MsrB1 (Sec-containing MsrB1; Cys form MsrB1-Cys) (Mus musculus; F97N/G77H) (protein)
# chain: MSFCSFFGGEVFQNHFEPGVYVCAKCSYELFSSHSKYAHSSPWPAFTETIHPDSVTKCPEKNRPEALKVSCGKCGNHLGHEFLNDGPKRGQSRFUINSSSLKFVPKGKEAAASQGH
# notes: as for B1
# B3: MsrB1 (Sec-containing MsrB1; Cys form MsrB1-Cys) (Mus musculus; G77H) (protein)
# chain: MSFCSFFGGEVFQNHFEPGVYVCAKCSYELFSSHSKYAHSSPWPAFTETIHPDSVTKCPEKNRPEALKVSCGKCGNHLGHEFLNDGPKRGQSRFUIFSSSLKFVPKGKEAAASQGH
# notes: as for B1
# B4: MsrB1 (Sec-containing MsrB1; Cys form MsrB1-Cys) (Mus musculus; F97N/G77H/U95C) (protein)
# chain: MSFCSFFGGEVFQNHFEPGVYVCAKCSYELFSSHSKYAHSSPWPAFTETIHPDSVTKCPEKNRPEALKVSCGKCGNHLGHEFLNDGPKRGQSRFCINSSSLKFVPKGKEAAASQGH
# notes: as for B1
# B5: MsrB1 (Sec-containing MsrB1; Cys form MsrB1-Cys) (Mus musculus; U95C) (protein)
# chain: MSFCSFFGGEVFQNHFEPGVYVCAKCSYELFSSHSKYAHSSPWPAFTETIHPDSVTKCPEKNRPEALKVSCGKCGNGLGHEFLNDGPKRGQSRFCIFSSSLKFVPKGKEAAASQGH
# notes: as for B1
# B6: MsrB1 (Sec-containing MsrB1; Cys form MsrB1-Cys) (Mus musculus; F97N) (protein)
# chain: MSFCSFFGGEVFQNHFEPGVYVCAKCSYELFSSHSKYAHSSPWPAFTETIHPDSVTKCPEKNRPEALKVSCGKCGNGLGHEFLNDGPKRGQSRFUINSSSLKFVPKGKEAAASQGH
# notes: as for B1
# B7: MsrB3 (Homo sapiens; H77G) (protein)
# chain: SGSCRDKKNCKVVFSQQELRKRLTPLQYHVTQEKGTESAFEGEYTGHKDPGIYKCVVCGTPLFKSETKFDSGSGWPSFHDVINSEAITFTDDFSYGMHRVETSCSQCGAHLGHIFDDGPRPTGKRYCINSAALSFTPADSSGTAEGGSGVASPAQADKAEL
# notes: MsrB3A delta(1-31), residues 32-192, endoplasmic reticulum signal removed, C-terminal His tag (LEHHHHHH), E. coli BL21(DE3), monomer
# B8: MsrB3 (Homo sapiens) (protein)
# chain: SGSCRDKKNCKVVFSQQELRKRLTPLQYHVTQEKGTESAFEGEYTHHKDPGIYKCVVCGTPLFKSETKFDSGSGWPSFHDVINSEAITFTDDFSYGMHRVETSCSQCGAHLGHIFDDGPRPTGKRYCINSAALSFTPADSSGTAEGGSGVASPAQADKAEL
# notes: as for B7
# B9: MsrB3 (Homo sapiens; N160Y) (protein)
# chain: SGSCRDKKNCKVVFSQQELRKRLTPLQYHVTQEKGTESAFEGEYTHHKDPGIYKCVVCGTPLFKSETKFDSGSGWPSFHDVINSEAITFTDDFSYGMHRVETSCSQCGAHLGHIFDDGPRPTGKRYCIYSAALSFTPADSSGTAEGGSGVASPAQADKAEL
# notes: as for B7
# B10: MsrB3 (Homo sapiens; I113E) (protein)
# chain: SGSCRDKKNCKVVFSQQELRKRLTPLQYHVTQEKGTESAFEGEYTHHKDPGIYKCVVCGTPLFKSETKFDSGSGWPSFHDVENSEAITFTDDFSYGMHRVETSCSQCGAHLGHIFDDGPRPTGKRYCINSAALSFTPADSSGTAEGGSGVASPAQADKAEL
# notes: as for B7
# Tests used:
# [1] = substrate: CN(C)c1ccc(N=Nc2ccc(S(=O)(=O)N[C@@H](CC[S@@+](C)[O-])C(=O)O)cc2)cc1; assay: HPLC of dabsyl-Met, Lineweaver-Burk; format: biochemical, Mus musculus; details: 20 mM DTT, 50 mM sodium phosphate pH 7.5, 50 mM NaCl, 37 °C
# Excerpt: HPLC of dabsyl-Met, Lineweaver-Burk on MsrB1 (Sec-containing MsrB1; Cys form MsrB1-Cys)
# [2] = substrate: CN(C)c1ccc(N=Nc2ccc(S(=O)(=O)N[C@@H](CC[S@@+](C)[O-])C(=O)O)cc2)cc1; assay: HPLC of dabsyl-Met, Lineweaver-Burk; format: biochemical, Homo sapiens; details: 20 mM DTT, 50 mM sodium phosphate pH 7.5, 50 mM NaCl, 37 °C, from E. coli
# Excerpt: HPLC of dabsyl-Met, Lineweaver-Burk on MsrB3
Protein,Km ([1]; Sec form from NIH 3T3) [µM],kcat ([1]; Sec form from NIH 3T3) [s⁻¹],Km ([2]; MsrB1 numbering) [µM],kcat ([2]; MsrB1 numbering) [s⁻¹],further results
B1,500 ± 100,0.223 ± 0.0383,–,–,–
B2,6400 ± 2100,0.04 ± 0.0083,–,–,–
B3,800 ± 50,0.0433 ± 0.013,–,–,–
B4,–,–,–,–,Km ([1]; MsrB1-Cys from E. coli): 13200 ± 2400 µM; kcat ([1]; MsrB1-Cys from E. coli): 0.023 ± 0.005 s⁻¹
B5,–,–,–,–,Km ([1]; MsrB1-Cys from E. coli): 1300 ± 200 µM; kcat ([1]; MsrB1-Cys from E. coli): 0.00183 ± 0.0005 s⁻¹
B6,4300 ± 1600,0.01 ± 0.0033,–,–,–
B7,–,–,1000 ± 200,0.0283 ± 0.005,–
B8,–,–,–,–,Km [2]: 800 ± 50 µM; kcat [2]: 0.827 ± 0.07 s⁻¹
B9,–,–,1200 ± 100,0.00033 ± 0.00017,–
B10,–,–,200 ± 50,0.07 ± 0.0083,–
